Patent US20100247590A1, “Peptide-Based Systems For Delivery Of Cosmetic Agents” (JOHNSON & JOHNSON, priority 2009, published 2010)

B1: MASGSDPS-Hair2Rnd1-GPEPEPEPEPIPEPPKEAPVVIEKPKPKPKPKPKPPA-Gray3Rnd4-GSGGGGSP-HHHHHH (peptide)
chain: MASGSDPSDRSKLYQSLEHRQPPGAHAQGPEPEPEPEPIPEPPKEAPVVIEKPKPKPKPKPKPPAAHDAKHEHRKQNHTQGSGGGGSPHHHHHH
B2: MASGSDPS-Hair2-GPEPEPEPEPIPEPPKEAPVVIEKPKPKPKPKPKPPA-Gray3-GSGGGGSP-HHHHHH (peptide)
chain: MASGSDPSAQSQLPDKHSGLHERAPQRYGPEPEPEPEPIPEPPKEAPVVIEKPKPKPKPKPKPPAHDHKNQKETHQRHAAGSGGGGSPHHHHHH

How the values were obtained:
[1] = Peptide-mediated binding of Co-NTA magnetic beads to gray hair, visual rating on magnet; design: species or system human
Method: Approximately 5 mg of 5 mm long hair strands (90% gray, human) were transferred to 2-mL microcentrifuge tubes. Approximately 1 mL of TBST0.1 buffer (25 mM Tris, 150 mM NaCl, pH7.2, with 0.1% TWEEN®-20) or the same buffer including varying concentrations of HC263 peptide was added to the hair.
The mixtures were shaken on a Nutator for one hour at room temperature (˜22° C.). The hairs were washed three times with TBST0.5 buffer (25 mM Tris, 150 mM NaCl, pH 7.2, with 0.5% TWEEN®-20). After washing, the hairs were resuspended in 900 μL Talon buffer (50 mM sodium phosphate, pH 8.0, 300 mM sodium chloride, 0.01% TWEEN®-20). A subset of hair/peptide conjugates were washed additionally one time with 1 mL of 0.25% SLES (Sodium Lauryl Ether Sulfate) for 5 min at room temperature on the Nutator, then washed two times with 1 mL TBST0.1 buffer. Approximately 0.2 mg of TALON™ beads (DYNABEADS® TALONT™, Invitrogen, Catalog#101.01D) were washed twice with TALON™ buffer on the DYNAL® MPC™ magnet and added to each reaction in 100 μL TALON™ buffer. The magnetic beads were coated with Co-NTA, which specifically binds to the six histidine residues incorporated into the peptide (C-terminal his tag). The hair and beads were incubated for 10 minutes with gentle shaking before the tubes were placed on the magnet.
Beads binding to the hair were expected to co-migrate on the sides of the tubes once applied to the magnet. The strength of binding was visually assessed and rated on a scale of 0 (little or no observed binding) to 5 (highest amount of observed binding).
The hair binding assay of Example 3 was used to assess the strength of binding of the test peptides in Table 10.

[2] = HC263-mediated binding of magnetic beads to surfaces, SEM score: cellulose; details: surface cellulose (filter paper), 0.2 μM HC263
Method: (§1) Peptide HC263 (SEQ ID NO: 196) was tested for peptide-mediated binding of magnetic beads to various surfaces: human hair, yak hair, wool, cotton, SONTARA® (a nonwoven, spunlaced textile sheet fabric, E.I. duPont de Nemours and Company, Inc., Wilmington, Del.), and cellulose (filter paper). Approximately 5 mg of human hair (90% gray), yak hair, wool, cotton, SONTARA®, or filter paper were added to 2-mL microcentrifuge tubes. Approximately 1 mL of TBST0.1 buffer (25 mM Tris, 150 mM NaCl, pH 7.2, with 0.1% TWEEN®-20) containing 0.2 μM HC263 was added. The mixtures were shaken on a Nutator (BD Diagnostics, Franklin Lakes, N.J.) for 30 minutes at room temperature (˜22° C.). The samples were washed three times with TBST0.5 buffer (25 mM Tris, 150 mM NaCl, pH 7.2, with 0.5% TWEEN®-20). After washing, the samples were re-suspended in 900 μL TALON™ (Clontech, Mountain View, Calif.) buffer (50 mM sodium phosphate, pH 8.0, 300 mM sodium chloride, 0.01% TWEEN®-20). Approximately 0.2 mg of TALON™ beads (DYNABEADS® TALON™, Invitrogen, Carlsbad, Calif.; Catalog#101.01D) were washed twice with TALON™ buffer on the DYNAL® MPC™ magnet (Invitrogen) and added to each reaction in 100-μL TALON™ buffer.
(§2) The strength of binding of the magnetic beads to the various surfaces was evaluated by visualization of scanning electron microscope (SEM) images taken at 1000-fold magnification.

[3] = HC263-mediated binding of magnetic beads to surfaces, SEM score: cotton; details: surface cotton, 0.2 μM HC263
Method: as §1, §2

[4] = HC263-mediated binding of magnetic beads to surfaces, SEM score: SONTARA; details: surface SONTARA, 0.2 μM HC263
Method: as §1, §2

[5] = HC263-mediated binding of magnetic beads to surfaces, SEM score: yak hair; details: surface yak hair, 0.2 μM HC263
Method: as §1, §2

[6] = HC263-mediated binding of magnetic beads to surfaces, SEM score: wool; details: surface wool, 0.2 μM HC263
Method: as §1, §2

Row | Molecule | Strength of binding (5 highest, 0 lowest) ([1]; Table 11, peptide 0.002 μM) | Strength of binding (5 highest, 0 lowest) ([1]; Table 11, peptide 0.02 μM) | Strength of binding (5 highest, 0 lowest) ([1]; Table 11, peptide 0.2 μM) | Strength of binding (5 highest, 0 lowest) [2] | Strength of binding (5 highest, 0 lowest) [3] | Strength of binding (5 highest, 0 lowest) ([1]; Table 9, peptide 0.002 μM, no SLES wash) | Strength of binding (5 highest, 0 lowest) [4] | Strength of binding (5 highest, 0 lowest) [5] | Strength of binding (5 highest, 0 lowest) [6]
1 | B1 | 2 | 5 | 5 |  |  |  |  |  | 
2 | B2 | 2 | 5 | 5 | 0 | 0 | 2 | 0 | 1 | 0
